Measured values from US20220249679A1 (Mitsubishi Tanabe Pharma Corporation, priority 2018, published 2022).

How the values were obtained:
human CD138 = target: T1, human CD138 (Homo sapiens, UniProt P18827); assay: FACS binding to Expi293 cells transfected with human CD138; conditions: 3-fold dilutions from 33.3 μg/mL
T1 sequence (P18827 23-310): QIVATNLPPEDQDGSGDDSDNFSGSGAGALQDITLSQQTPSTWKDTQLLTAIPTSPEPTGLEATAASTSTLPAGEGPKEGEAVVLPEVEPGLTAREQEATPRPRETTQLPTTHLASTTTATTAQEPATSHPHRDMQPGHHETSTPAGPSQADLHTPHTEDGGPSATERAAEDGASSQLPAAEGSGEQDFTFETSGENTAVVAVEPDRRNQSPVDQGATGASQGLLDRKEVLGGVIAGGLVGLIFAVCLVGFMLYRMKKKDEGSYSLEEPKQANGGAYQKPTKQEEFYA
Experimental: (§1) 12P16F6 hIgG1 or 13P30A7 hIgG1 were tested for cross-reactivity to cynomolgus monkey CD138. Antibodies that cross-react with CD138 from cynomolgus monkey (cyno) have an advantage that they can be tested for toxicity in this strain of non-human primate prior to conducting efficacy trials. Briefly, a vector directing the cell-surface expression of human CD138 or cyno CD138 was transfected in Expi293 cells. Binding of 12P16F6 hIgG1 and 13P30A7 hIgG1 to transfected Expi293 cells was tested at 3-fold dilutions starting at 33.3 μg/mL.

cyno CD138 = assay: FACS binding to Expi293 cells transfected with cyno CD138; design: species or system cynomolgus monkey; conditions: 3-fold dilutions from 33.3 μg/mL
Chain of cyno CD138 (as listed by the source): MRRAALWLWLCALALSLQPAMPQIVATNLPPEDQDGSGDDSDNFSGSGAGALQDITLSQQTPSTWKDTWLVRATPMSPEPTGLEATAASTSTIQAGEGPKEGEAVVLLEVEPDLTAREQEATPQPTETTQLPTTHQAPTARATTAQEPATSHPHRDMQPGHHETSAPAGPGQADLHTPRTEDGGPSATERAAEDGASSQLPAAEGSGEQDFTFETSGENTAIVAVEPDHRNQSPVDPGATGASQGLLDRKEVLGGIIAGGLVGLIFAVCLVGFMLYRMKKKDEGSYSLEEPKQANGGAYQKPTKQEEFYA
Experimental: as §1

Secukinumab [reference compound]
binding to human CD138 expressing cells (human CD138): little or no specific binding | binding to cynomolgus CD138 expressing cells (cyno CD138): little or no specific binding
